Laboratory results taken from patent US20030157712A1, “Methods for determining cell responses through EphB receptors” (priority 1997, published 2003).

How the values were obtained:
EphB1 = molecular target: T1, EphB1 (Homo sapiens, UniProt P54762); test: EphB1 immunoprecipitation and phosphotyrosine immunoblot; type: cell-based; conditions: in each cell type (HRMEC, HUVEC)
T1 construct: Ligand stimulation and immunoprecipitation of endogenous EphB receptors; endogenous in cells; host or cells: HRMEC (human); P19 (murine teratocarcinoma) in part of the results
T1 sequence (P54762 18-984): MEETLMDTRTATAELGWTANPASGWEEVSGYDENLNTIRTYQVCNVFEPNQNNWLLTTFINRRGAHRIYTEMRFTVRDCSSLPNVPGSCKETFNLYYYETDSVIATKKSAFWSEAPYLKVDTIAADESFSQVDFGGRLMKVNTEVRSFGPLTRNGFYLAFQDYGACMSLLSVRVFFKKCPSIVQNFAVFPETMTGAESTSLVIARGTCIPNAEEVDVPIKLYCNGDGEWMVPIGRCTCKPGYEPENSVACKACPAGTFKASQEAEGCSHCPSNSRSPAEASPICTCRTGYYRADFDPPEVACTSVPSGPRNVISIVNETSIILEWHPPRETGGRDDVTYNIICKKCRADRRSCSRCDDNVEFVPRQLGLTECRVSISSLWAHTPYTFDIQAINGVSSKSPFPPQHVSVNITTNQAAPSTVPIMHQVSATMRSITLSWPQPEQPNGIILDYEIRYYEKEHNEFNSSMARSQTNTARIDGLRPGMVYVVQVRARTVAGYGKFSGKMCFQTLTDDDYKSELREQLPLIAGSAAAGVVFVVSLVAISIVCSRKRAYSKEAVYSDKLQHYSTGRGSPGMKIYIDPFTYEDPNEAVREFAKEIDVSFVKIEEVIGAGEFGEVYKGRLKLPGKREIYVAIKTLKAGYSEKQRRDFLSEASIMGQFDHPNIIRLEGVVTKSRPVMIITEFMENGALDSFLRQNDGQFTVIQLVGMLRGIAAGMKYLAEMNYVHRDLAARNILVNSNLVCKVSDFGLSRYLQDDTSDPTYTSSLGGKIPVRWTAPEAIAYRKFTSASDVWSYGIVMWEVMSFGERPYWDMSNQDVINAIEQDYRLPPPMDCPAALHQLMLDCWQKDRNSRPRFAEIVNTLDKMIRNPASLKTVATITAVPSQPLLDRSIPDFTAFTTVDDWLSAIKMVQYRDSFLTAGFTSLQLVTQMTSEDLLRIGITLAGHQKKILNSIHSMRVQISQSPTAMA

HRMEC [1] = test: Endothelial assembly into capillary-like structures (HRMEC); type: cell-based, human; conditions: Matrigel-coated surfaces, defined medium; vascular bed comparison
Method: Endothelial assembly into capillary-like structures. Twelve well plates (Falcon) were coated with thin layers of Matrigel. HRMEC were plated at a density of 4×10^4 cells/well in DME containing 1% fetal bovine serum. Indicated agonists, control peptides, alone, or in combination with the EphB1/Fc antagonist (1000 ng ml^−1) (FIG. 5) were added at the time of plating. Cells were incubated at 37° C. for 8 h and photographed using phase microscopy (magnification 100×) (Diaphot-TMD, Nikon).

HUVEC [2] = test: Two dimensional capillary-like assembly assay (HUVEC); type: cell-based, human; conditions: Matrigel-coated surfaces, defined medium; vascular bed comparison
Method: (§1) For these studies, HRMEC or HUVEC were plated on Matrigel-coated surfaces in defined medium in a two dimensional capillary-like assembly assay. Ephrin-B1 promoted capillary-like assembly of HRMEC, but not HUVEC, while ephrin-A1 promoted assembly of HUVEC but not HRMEC, in identical media at concentrations appropriate for their respective affinities for EphB1 and EphA2. In each cell type, ephrin-B1 and ephrin-A1 promoted tyrosine phosphorylation of 130 kDa EphB1 and EphA2, both of which are expressed in each system.

HEK293 cells = test: Solid phase cell attachment assay (HEK293); type: cell-based, human
Method: Cell culture and transfection. Human embryonic kidney cells, HEK293, were passaged in minimum essential medium (Life Technologies) supplemented with 10% fetal bovine serum (Hyclone Laboratories, Logan, Utah). HRMEC were cultured as described (12). HEK293 cells were transfected with Lipofectamine Plus (Life Technologies) as described by the manufacturer. The expression constructs pSRα-hEphB1-HA, pSRα-hEphB1-HA-K652R, pSRα-hEphB1-HA-Y596F and pSRα-hEphB1-HA-Y929F have been described previously (45,46). Cell attachment assays were performed 48 hours after transfection.
Solid phase cell attachment assays. Forty-eight-well plates (Falcon) were coated with a layer of nitrocellulose (Schleicher & Schuell) and allowed to air dry as described (47). Coated wells were incubated overnight at 4° C. with PBS containing matrix proteins at the indicated concentrations alone (no addition, NA) or in combination with dimeric EphrinB1/Fc. Two hours prior to assay, wells were washed twice then blocked at 37° C. with 1% BSA. Serum starved cells were harvested in 2 mM EDTA in PBS (HEK293) or recovered by trypsinization (HRMEC), washed twice in serum free medium containing 1% BSA, then plated at a density of 0.7-1×10^5 cells per well. […] Adherent cells were fixed with 2% glutaraldehyde, stained with 0.5% crystal violet (in EtOH), and quantified by OD reading at 570 nm. […]

αvβ3 integrin = test: Surface biotinylation and integrin immunoprecipitation (endothelial cells); type: cell-based, human; conditions: 60 min on coated dishes
Method: (§2) Surface biotinylation and integrin immunoprecipitation. To determine if surface integrin expression was altered by transfection and/or exposure to ephrinB1/Fc, cells were biotinylated for 30 min at 4° C. with 0.5 mg/ml Sulfo-NHS-LC-Biotin (Pierce, Rockford, Ill.) before plating onto 60 mm dishes coated with nitrocellulose, fibrinogen and EphrinB1/Fc. After a 60 min incubation at 37° C., cells were harvested in WG buffer (15) and immunoprecipitation performed with 2 ug of the integrin antibodies used in the competition experiments. After SDS-PAGE (non-reducing conditions) and Western blotting, biotinylated proteins were detected by enhanced chemiluminescence using ECL Western Blotting Detection (Amersham).

α5β1 integrin = test: Surface biotinylation and integrin immunoprecipitation (HEK293); type: cell-based, human; conditions: 60 min on coated dishes
Method: as §2

HRMEC [3] = conditions: background art; cited from earlier work
HUVEC [4] = conditions: background art; cited from earlier work
EphA2 = molecular target: T2, EphA2 (Homo sapiens, UniProt P29317); test: EphA2 tyrosine phosphorylation in endothelial cells; type: cell-based; conditions: in each cell type (HRMEC, HUVEC)
T2 construct: 130 kDa EphB1 and EphA2, both of which are expressed in each system; endogenous in cells; host or cells: HRMEC and HUVEC
Method: as §1

Row | Molecule | tyrosine phosphorylation of 130 kDa EphB1 (EphB1) | capillary-like assembly of HRMEC (HRMEC [1]) | capillary-like assembly of HUVEC (HUVEC [2]) | attachment to fibrinogen of HEK293 cells transiently expressing EphB1 (HEK293 cells; 48 hours after transfection) | attachment to fibrinogen or RGD peptide of untransfected HEK293 cells (HEK293 cells; basal conditions, no endogenous EphB1 or EphB2) | surface expression of endothelial αvβ3 integrin (αvβ3 integrin) | surface expression of HEK293 α5β1 integrin (α5β1 integrin) | assembly of HRMEC into capillary-like structures (reference 8) (HRMEC [3]) | capillary-like assembly of HUVEC (reference 8) (HUVEC [4]) | tyrosine phosphorylation of 130 kDa EphA2 (EphA2)
1 | Ephrin-B1: transmembrane ligand of EphB subclass receptors (protein) LAKNLEPVSWSSLNPKFLSGKGLVIYPKIGDKLDIICPRAEAGRPYEYYKLYLVRPEQAAACSTVLDPNVLVTCNRPEQEIRFTIKFQEFSPNYMGLEFKKHHDYYITSTSNGSLEGLENREGGVCRTRTMKIIMKVGQDPNAVTPEQLTTSRPSKEADNTVKMATQAPGSRGSLGDSDGKHETVNQEEKSGPGASGGSSGDPDGFFNSK | promoted | promoted | not | increases in attachment | no ephrin-B1 dependent change | did not increase | did not increase | promotes | not responsive | 
2 | ephrin-A1: GPI-linked membrane protein, primary ligand for EphA2 (Eck) (protein) DRHTVFWNSSNPKFRNEDYTIHVQLNDYVDIICPHYEDHSVADAAMEQYILYLVEHEEYQLCQPQSKDQVRWQCNRPSAKHGPEKLSEKFQRFTPFTLGKEFKEGHSYYYISKPIHQHEDRCLRLKVTVSGKITHSPQAHDNPQEKRLAADDPEVRVLHSIGHS |  | not | promoted |  |  |  |  | no capillary-assembly activity | promotes | promoted
